Laboratory results as given in patent publication US20170252417A1 (MIT, published 2017).

B1: M18.2.5 (designed binder)
chain: ATVKFTYRGEEKQVDISKIKWVVRLGQVIMFKYDEGGGASGYGRVSEKDAPKELLQMLEK
notes: Isolated from a yeast surface display library built on the rcSso7d scaffold; In the vaccines it was fused at its C-terminus to GGGS-His tag-GGGS-E7 long
B2: M11.1.2 (designed binder)
chain: ATVKYTYRGEEKRVDISKIKWVNRWGQHLAFKYDKGGGAAGYGWVSEKDAPKELLQMLEKR
notes: as for B1

Molecular target: mouse serum albumin (MSA) (mouse, UniProt P07724 25-608)
Assay: yeast surface display library on rcSso7d scaffold, selection for MSA binders

Binder	binding result
B1	binds
B2	binds
